From the supplement of paper PMC10567573

B1: CDC25B (parent)
chain: FVDILESDLKDDDAVPPGMESLIS
B2: PKD2L1 (parent)
chain: YSGGGYYLDLPGSRQGSAEALRAL

Variants of: B1
Assay: protein stability index of a GFP-peptide fusion (GPS, HEK-293T) (PSI 1-6); higher = more stable
Settings: c terminus: a fixed tail appended
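Further: lentivirally expressed fusions sorted by FACS into six bins by GFP to DsRed ratio, PSI derived from sequencing read proportions per bin multiplied by bin number.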

Variant | protein stability index
K10E | 3.33
K10T | 3.46
K10W | 2.43
K10M | 3.2
D11I | 2.6
D11T | 3.28
D11P | 2.68
D11H | 2.37
D11N | 2.5
D11V | 2.61
P16R | 2.59
P16E | 3.04
P16Y | 2.82
P16W | 2.52
P16Q | 2.79
P16V | 3.07
V2P | 4.8
V2A | 4.51
E6K | 2.84
E6L | 2.45
E6F | 2.68
S7K | 2.6
V15Y | 3.1
V15A | 2.78

Variant | protein stability index
I23T | 2.91
D8E | 2.89
D8C | 2.15
D8H | 2.79
D12W | 1.83
D12Q | 2.62
D12P | 2.66
D12M | 2.08
D13G | 2.61
D13F | 2.38
D13K | 2.96
D13L | 2.61
P17V | 2.27
P17Y | 2.71
P17W | 1.81
L5V | 3.03
L5Y | 2.8
L5Q | 3.67
L5S | 4.58
S24Q | 3.9
F1S | 5.39
F1V | 4.08
F1W | 2.5
F1L | 4.81

Variant | protein stability index
F1G | 5.23
A14H | 2.75
A14M | 3
L9Q | 3.18
L9H | 3.33
L9M | 3.03
G18D | 3.29
G18Y | 2.65
L22F | 2.63
L22P | 3.36
L22A | 3.37
E20Q | 3.08
E20R | 2.71
S21H | 2.67
S21A | 2.84
I4N | 4.34
I4K | 2
I4R | 3.11
I4V | 3.13
D3Y | 2.15
D3K | 2.65
D3C | 2.4

Variants of: B2
Assay: as above
Settings: c terminus: a fixed tail appended

Variant | protein stability index
G5S | 1.83
G5E | 2.06
G5W | 3.35
G5V | 2.1
G5P | 2.41
G5T | 1.96
G5F | 2.17
G5H | 2.28
G5D | 2.28
G5A | 1.14
G5Q | 1.39
G5K | 2.65
G5Y | 1.71
G5M | 2.68
G5L | 1.6
G5C | 1.25
G5N | 1.76
G5I | 1.33
G5R | 2.67
Y6C | 2.75
Y6A | 2.27
Y6D | 2.57
Y6E | 3.37
G3D | 2.5
G3A | 1.58

Variant | protein stability index
G3I | 2.27
G3C | 2.41
G3Q | 1.52
G3P | 2.31
G3W | 2.09
G3E | 2.06
G3S | 1.73
G3N | 1.52
G3H | 2.02
G3K | 2.37
G3V | 2.21
G3M | 2.12
G3F | 1.45
G3R | 2.47
G3T | 1.93
G3L | 2.87
G3Y | 1.7
Y1M | 2.99
Y1N | 3.58
Y1I | 2.72
Y1D | 4.08
Y1V | 2.98
Y1R | 3.13
Y1W | 2.94
Y1A | 3.15

Variant | protein stability index
Y1F | 2.68
Y1L | 3.1
Y1C | 2.29
Y1G | 3.66
Y1H | 3.5
Y1P | 3.49
Y1T | 3.58
Y1S | 3.48
Y1E | 3.75
Y1K | 3.16
Y1Q | 3.75
S2I | 2.34
S2R | 2.51
S2H | 2.88
S2T | 2.59
S2N | 1.84
S2L | 1.4
S2G | 1.45
S2E | 3
S2W | 2.13
S2P | 3.27
S2D | 2.45
S2M | 1.92
S2V | 3.97
S2Y | 2.19

Variant | protein stability index
S2F | 1.93
S2Q | 2.3
S2K | 2.22
G4C | 1.95
G4Q | 2.23
G4L | 2.15
G4W | 2.44
G4N | 1.67
G4E | 1.8
G4S | 2.08
G4K | 2.37
G4R | 2.48
G4M | 2.35
G4V | 2.22
G4A | 1.56
G4F | 2.49
G4T | 2.53
G4Y | 1.65
G4I | 1.78
G4D | 2.86
G4H | 2.45
G4P | 2.03
